Results taken from article PMC3593967 (Molecular pharmaceutics, 2013).
Bridge positions count the residues as written; N and C are the ends. Square brackets hold non-standard residues; d marks the D form. Peptide text beside a SMILES is read from it. * marks the point of attachment. DOTA(p-xylylenediamine) = O=C(O)CN1CCN(CC(=O)O)CCN(CC(=O)NCc2ccc(CN*)cc2)CCN(CC(=O)O)CC1; DOTA = O=C(O)CN1CCN(CC(=O)O)CCN(CC(=O)*)CCN(CC(=O)O)CC1; Tyr(3-Cl) = N[C@@H](Cc1ccc(O)c(Cl)c1)C(=O)O; Hyp = O=C(O)[C@@H]1C[C@@H](O)CN1

Experiments:
arterial thrombus = experiment: Biodistribution in rat model of carotid artery thrombosis; format: in vivo; details: 120 min post injection, ratio of %ID/g
[1] = as above; format: in vivo; details: male, Wistar, in vivo, iv, total radioactivity, Biodistribution

| SMILES | thrombus uptake relative to blood (arterial thrombus) | tissue uptake at 2 h ([1]; blood) [%ID/g] | tissue uptake at 2 h ([1]; bone) [%ID/g] | tissue uptake at 2 h ([1]; brain) [%ID/g] | tissue uptake at 2 h ([1]; clot) [%ID/g] | tissue uptake at 2 h ([1]; heart) [%ID/g] | tissue uptake at 2 h ([1]; intestine) [%ID/g] | tissue uptake at 2 h ([1]; kidney) [%ID/g] | tissue uptake at 2 h ([1]; liver) [%ID/g] | tissue uptake at 2 h ([1]; lungs) [%ID/g] | tissue uptake at 2 h ([1]; muscle) [%ID/g] | tissue uptake at 2 h ([1]; spleen) [%ID/g] |
| --- | --- | --- | --- | --- | --- | --- | --- | --- | --- | --- | --- | --- |
| CC[C@H](C)[C@H](NC(=O)[C@H](Cc1ccc(O)cc1)NC(=O)[C@@H]1CSSC[C@H](NC(=O)[C@@H](CCC(=O)O)NC(=O)[C@H](Cc2ccc(O)cc2)NC(=O)CN2CCN(CC(=O)O)CCN(CC(=O)O)CCN(CC(=O)O)CC2)C(=O)N2C[C@H](O)C[C@H]2C(=O)N[C@@H](Cc2ccc(O)c(Cl)c2)C(=O)NCC(=O)N[C@@H](CC(C)C)C(=O)N1)C(=O)N[C@@H](CCC(N)=O)C(=O)NCc1ccc(CNC(=O)CN2CCN(CC(=O)O)CCN(CC(=O)O)CCN(CC(=O)O)CC2)cc1 [FBP1] ({DOTA}-Y[dE]C[Hyp][Tyr(3-Cl)]GLCYIQ-{DOTA(p-xylylenediamine)}; disulfide 3-8) | > 2.5 fold | – | – | – | – | – | – | – | – | – | – | – |
| CC[C@H](C)[C@H](NC(=O)[C@H](Cc1c[nH]cn1)NC(=O)[C@@H]1CSSC[C@H](NC(=O)[C@H](Cc2c[nH]cn2)NC(=O)[C@H](Cc2ccccc2)NC(=O)CN2CCN(CC(=O)O)CCN(CC(=O)O)CCN(CC(=O)O)CC2)C(=O)N2C[C@H](O)C[C@H]2C(=O)N[C@@H](Cc2ccc(O)c(Cl)c2)C(=O)N[C@@H](CC(=O)O)C(=O)N[C@@H](CC(C)C)C(=O)N1)C(=O)N[C@@H](CC(C)C)C(=O)NCc1ccc(CNC(=O)CN2CCN(CC(=O)O)CCN(CC(=O)O)CCN(CC(=O)O)CC2)cc1 [FBP2] ({DOTA}-FHC[Hyp][Tyr(3-Cl)]DLCHIL-{DOTA(p-xylylenediamine)}; disulfide 3-8) | > 2.5 fold | 0.164 ± 0.016 | 0.043 ± 0.015 | 0.017 ± 0.004 | 0.445 ± 0.102 | 0.074 ± 0.011 | 0.278 ± 0.095 | 2.72 ± 0.848 | 0.617 ± 0.187 | 0.048 ± 0.01 | 0.012 ± 0.003 | 0.071 ± 0.016 |
| CC[C@H](C)[C@H](NC(=O)[C@H](Cc1c[nH]c2ccccc12)NC(=O)[C@@H]1CSSC[C@H](NC(=O)[C@H](CCC(=O)O)NC(=O)[C@H](Cc2c[nH]c3ccccc23)NC(=O)CN2CCN(CC(=O)O)CCN(CC(=O)O)CCN(CC(=O)O)CC2)C(=O)N2C[C@H](O)C[C@H]2C(=O)N[C@@H](Cc2ccc(O)c(Cl)c2)C(=O)NCC(=O)N[C@@H](CC(C)C)C(=O)N1)C(=O)N[C@@H](CCC(N)=O)C(=O)NCc1ccc(CNC(=O)CN2CCN(CC(=O)O)CCN(CC(=O)O)CCN(CC(=O)O)CC2)cc1 [FBP3] ({DOTA}-WEC[Hyp][Tyr(3-Cl)]GLCWIQ-{DOTA(p-xylylenediamine)}; disulfide 3-8) | no difference | 0.184 ± 0.026 | 0.041 ± 0.011 | 0.011 ± 0.003 | 0.183 ± 0.088 | 0.082 ± 0.01 | 0.184 ± 0.053 | 0.621 ± 0.186 | 1.46 ± 0.292 | 0.066 ± 0.008 | 0.009 ± 0.001 | 0.04 ± 0.006 |
